In the test the target is gp41 of HIV-1/IIIB virions (virus stock, culture supernatant) (HIV-1 (isolate IIIB)) (UniProt P04578). Kind of test: SEC + ELISA. A general note: An ELISA detects its analyte on a solid surface through an enzyme-linked reagent.

The results in this text go back to paper PMC2118908.

Turning to “gp120 of HIV-1/IIIB virions (virus stock, culture supernatant) (from UniProt P04578 33-511) (natural protein)”, the percent of total gp120 virion bound (virus + sCD4) was 24%, the percent of total gp120 virion bound (virus + sCD4 + thrombin) came to 18%, the percent of total gp120 virion bound (virus + thrombin + sCD4) was 20% and the percent of total gp120 virion bound (virus + thrombin) stood at 59%. Further, the percent of total gp120 virion bound (virus alone) worked out at 57%, the percent of total gp120 virion-bound (virus stock) was found to be 55% and the reduction of virion bound gp120 after 10 h at 4C with sCD4 was 10%.
